Experiments:
[1] = target: Als1p with the V326N mutation, V5-tagged, displayed on the surface of S. cerevisiae cells (Candida albicans) (UniProt Q5A8T4); assay: single-cell force spectroscopy (AFM); one live yeast cell on a polydopamine-coated tipless cantilever brought repeatedly into contact with another cell on a hydrophobic substrate; PBS, 20 C; 500 adhesion-rupture trials per cell pair
[2] = target: Wild-type Als1p (Candida albicans cell adhesion protein Als1p), V5-tagged, displayed on the surface of S. cerevisiae cells (Candida albicans) (UniProt Q5A8T4); assay: as above

Substance	% of cell pairs binding [1]	mean maximum rupture force per pair [1]	mean rupture force [1]	% of cell pairs binding [2]	mean maximum rupture force per pair [2]	mean rupture force [2]
Als1p with the V326N mutation, V5-tagged, displayed on the surface of S. cerevisiae cells (from UniProt Q5A8T4 18-1238) (natural protein)	7%	667 pN	517 pN	–	–	–
Wild-type Als1p (Candida albicans cell adhesion protein Als1p), V5-tagged, displayed on the surface of S. cerevisiae cells (from UniProt Q5A8T4 18-1238) (natural protein)	33%	953 pN	483 pN	97%	3330 pN	1510 pN
